# Test results reported in patent publication US20140271607A1.
# B1: FacVIIa-ATKAVC-PEG-Fc complex (protein, part only; not given: Fc region and PEG linker, not shown: a dimerising Fc or GST)
# chain: MVSQALRLLCLLLGLQGCLAAVFVTQEEAHGVLHRRRRANAFLEELRPGSLERECKEEQCSFEEAREIFKDAERTKLFWISYSDGDQCASSPCQNGGSCKDQLQSYICFCLPAFEGRNCETHKDDQLICVNENGGCEQYCSDHTGTKRSCRCHEGYSLLADGVSCTPTVEYPCGKIPILEKRNASKPQGRIVGGKVCPKGECPWQVLLLVNGAQLCGGTLINTIWVVSAAHCFDKIKNWRNLIAVLGEHDLSEHDGDEQSRRVAQVIIPSTYVPGTTNHDIALLRLHQPVVLTDHVVPLCLPERTFSERTLAFVRFSLVSGWGQLLDRGATALELMVLNVPRLMTQDCLQQSRKVGDSPNITEYMFCAGYSDGSKDSCKGDSGGPHATHYRGTWYLTGIVSWGQGCATVGHFGVYTRVSQYIEWLQKLMRSEPRPGVLLRAPFPATKAVC
# modifications: C-terminal cysteine linked to the maleimide end of 10 kDa PEG
# B2: FacVIIa-ATKAVC (activated FacVII-ATKAVC derivative) (protein)
# chain: AVFVTQEEAHGVLHRRRRANAFLEELRPGSLERECKEEQCSFEEAREIFKDAERTKLFWISYSDGDQCASSPCQNGGSCKDQLQSYICFCLPAFEGRNCETHKDDQLICVNENGGCEQYCSDHTGTKRSCRCHEGYSLLADGVSCTPTVEYPCGKIPILEKRNASKPQGRIVGGKVCPKGECPWQVLLLVNGAQLCGGTLINTIWVVSAAHCFDKIKNWRNLIAVLGEHDLSEHDGDEQSRRVAQVIIPSTYVPGTTNHDIALLRLHQPVVLTDHVVPLCLPERTFSERTLAFVRFSLVSGWGQLLDRGATALELMVLNVPRLMTQDCLQQSRKVGDSPNITEYMFCAGYSDGSKDSCKGDSGGPHATHYRGTWYLTGIVSWGQGCATVGHFGVYTRVSQYIEWLQKLMRSEPRPGVLLRAPFPATKAVC
# B3: blood coagulation factor VII (Factor VII, FacVII), native (protein)
# chain: AVFVTQEEAHGVLHRRRRANAFLEELRPGSLERECKEEQCSFEEAREIFKDAERTKLFWISYSDGDQCASSPCQNGGSCKDQLQSYICFCLPAFEGRNCETHKDDQLICVNENGGCEQYCSDHTGTKRSCRCHEGYSLLADGVSCTPTVEYPCGKIPILEKRNASKPQGRIVGGKVCPKGECPWQVLLLVNGAQLCGGTLINTIWVVSAAHCFDKIKNWRNLIAVLGEHDLSEHDGDEQSRRVAQVIIPSTYVPGTTNHDIALLRLHQPVVLTDHVVPLCLPERTFSERTLAFVRFSLVSGWGQLLDRGATALELMVLNVPRLMTQDCLQQSRKVGDSPNITEYMFCAGYSDGSKDSCKGDSGGPHATHYRGTWYLTGIVSWGQGCATVGHFGVYTRVSQYIEWLQKLMRSEPRPGVLLRAPFP
# B4: FacVII-40 kDa PEG (N-terminal PEGylated FacVII) (protein)
# chain: B3 chain
# Experiments:
# [1] = target: FX (blood coagulation factor X); test: cell-based or functional assay
# [2] = target: rsTF (recombinant soluble tissue factor) (UniProt P13726); test: cell-based or functional assay
# [3] = target: T1, rsTF (recombinant soluble tissue factor), P13726
# T1 chain: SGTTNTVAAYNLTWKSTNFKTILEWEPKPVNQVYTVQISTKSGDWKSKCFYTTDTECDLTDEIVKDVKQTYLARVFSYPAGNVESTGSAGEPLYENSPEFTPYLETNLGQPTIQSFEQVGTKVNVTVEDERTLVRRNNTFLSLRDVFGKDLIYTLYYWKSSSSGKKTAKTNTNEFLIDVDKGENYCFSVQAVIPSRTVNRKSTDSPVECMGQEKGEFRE
# [4] = target: FX (blood coagulation factor X)
molecule,measurement,setting,value
"FacVII-ATKAVC (FacVII derivative with SOD1 residues 1-6, ATKAVC, at the C-terminus) (from UniProt P08709 1-466) (enzyme)","EC50 (ng/mL), chromogenic assay (COASET)",[1],1.75 ng/mL
same,"EC50 (ng/mL), chromogenic assay (COASET), Run 1",[1],1.36 ng/mL
same,"EC50 (ng/mL), chromogenic assay (COASET), Run 2",[1],1.16 ng/mL
FacVII-ATKAVC-40 kDa PEG conjugate (C-terminal PEGylated) (from UniProt P08709 1-466) (enzyme),"EC50 (ng/mL), chromogenic assay (COASET)",[1],6.06 ng/mL
B1,"Potency (IU/mL), clotting assay (StaclotVIIa-rTF)",[2],1990 IU/mL
same,"Residual activity, % (compared to FacVIIa-ATKAVC), clotting assay (StaclotVIIa-rTF)",[2],44.7%
same,"Specific activity (IU/mg as FacVIIa), clotting assay (StaclotVIIa-rTF)",[2],20600 IU/mg
B2,"Potency (IU/mL), clotting assay (StaclotVIIa-rTF)",[3],16700 IU/mL
same,"Specific activity (IU/mg as FacVIIa), clotting assay (StaclotVIIa-rTF)",[3],46100 IU/mg
B3,"EC50 (ng/mL), chromogenic assay (COASET)",[1],1.38 ng/mL
same,"EC50 (ng/mL), chromogenic assay (COASET), Run 1",[1],1.62 ng/mL
same,"EC50 (ng/mL), chromogenic assay (COASET), Run 2",[1],1.67 ng/mL
same,"Relative activity, %, chromogenic assay (COASET)",[4],100%
same,"Relative activity, %, chromogenic assay (COASET), Run 1",[4],100%
same,"Relative activity, %, chromogenic assay (COASET), Run 2",[4],100%
B4,"EC50 (ng/mL), chromogenic assay (COASET)",[1],12.2 ng/mL
same,"Relative activity, % (compared to FacVII), chromogenic assay (COASET)",[4],11.3%
